Measurements: patent US20260242735A1 (UNIVERSIT T BASEL, published 2026)

Legend:
Test in all cases: flow cytometry, transfected cells
[1] = biological target: human CD33 P46R (human, UniProt P20138 18-364)
[2] = biological target: human CD33 P46Y (human, UniProt P20138 18-364)
[3] = biological target: human CD33 P46H (human, UniProt P20138 18-364)
[4] = biological target: human CD33 P46D (human, UniProt P20138 18-364)
[5] = biological target: human CD33 N20P (human, UniProt P20138 18-364)
[6] = biological target: human CD33 N20W (human, UniProt P20138 18-364)
Sequence of human CD33 N20W (P20138 18-364 N20W limits assumed): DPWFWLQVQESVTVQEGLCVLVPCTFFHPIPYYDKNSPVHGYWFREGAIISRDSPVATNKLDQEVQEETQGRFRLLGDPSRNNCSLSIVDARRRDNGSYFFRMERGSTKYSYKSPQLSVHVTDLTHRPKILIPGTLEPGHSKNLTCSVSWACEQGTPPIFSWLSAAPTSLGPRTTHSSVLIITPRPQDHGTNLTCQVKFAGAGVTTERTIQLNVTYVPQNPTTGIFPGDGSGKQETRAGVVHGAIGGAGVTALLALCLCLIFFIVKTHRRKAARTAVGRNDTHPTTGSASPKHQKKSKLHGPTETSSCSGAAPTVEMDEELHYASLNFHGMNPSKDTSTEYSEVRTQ

[7] = biological target: human CD33 N20Q (human, UniProt P20138 18-364)
Sequence of human CD33 N20Q (P20138 18-364 N20Q limits assumed): as the sequence (P20138 18-364 N20W limits assumed) above, with W3Q counted along it

[8] = biological target: human CD33 N20V (human, UniProt P20138 18-364)
Sequence of human CD33 N20V (P20138 18-364 N20V limits assumed): as the sequence (P20138 18-364 N20W limits assumed) above, with W3V counted along it

[9] = biological target: human CD33 F21S (human, UniProt P20138 18-364)
Sequence of human CD33 F21S (P20138 18-364 F21S limits assumed): as the sequence (P20138 18-364 N20W limits assumed) above, with W3N, F4S counted along it

[10] = biological target: human CD33 W22G (human, UniProt P20138 18-364)
Sequence of human CD33 W22G (P20138 18-364 W22G limits assumed): as the sequence (P20138 18-364 N20W limits assumed) above, with W3N, W5G counted along it

[11] = biological target: human CD33 W22S (human, UniProt P20138 18-364)
Sequence of human CD33 W22S (P20138 18-364 W22S limits assumed): as the sequence (P20138 18-364 N20W limits assumed) above, with W3N, W5S counted along it

[12] = biological target: human CD33 W22L (human, UniProt P20138 18-364)
Sequence of human CD33 W22L (P20138 18-364 W22L limits assumed): as the sequence (P20138 18-364 N20W limits assumed) above, with W3N, W5L counted along it

Sequence of human CD33 P46Y (P20138 18-364 P46Y limits assumed): as the sequence (P20138 18-364 N20W limits assumed) above, with W3N, P29Y counted along it
Sequence of human CD33 P46H (P20138 18-364 P46H limits assumed): as the sequence (P20138 18-364 N20W limits assumed) above, with W3N, P29H counted along it
Sequence of human CD33 N20P (P20138 18-364 N20P limits assumed): as the sequence (P20138 18-364 N20W limits assumed) above, with W3P counted along it
Sequence of human CD33 P46D (P20138 18-364 P46D limits assumed): as the sequence (P20138 18-364 N20W limits assumed) above, with W3N, P29D counted along it
Sequence of human CD33 P46R (P20138 18-364 P46R limits assumed): as the sequence (P20138 18-364 N20W limits assumed) above, with W3N, P29R counted along it

binding result [1]: no binding (tested: below 20%) | binding result [2]: no binding (tested: below 20%) | binding result [3]: no binding (tested: below 20%) | binding result [4]: no binding (tested: below 20%) | binding result [5]: no binding (tested: below 20%) | binding result [6]: no binding (tested: below 20%) | binding result [7]: no binding (tested: below 20%) | binding result [8]: no binding (tested: below 20%) | binding result [9]: no binding (tested: below 20%) | binding result [10]: no binding (tested: below 20%) | binding result [11]: no binding (tested: below 20%) | binding result [12]: no binding (tested: below 20%)
B1: Refmab #3 (antibody, human IgG1, V domains shown)
VH: QVQLVQSGAEVKKPGSSVKVSCKASGYTFTDYNMHWVRQAPGQGLEWIGYIYPYNGGTGYNQKFKSKATITADESTNTAYMELSSLRSEDTAVYYCARGRPAMDYWGQGTLVTVSS
VL: DIQMTQSPSSLSASVGDRVTITCRASESVDNYGISFMNWFQQKPGKAPKLLIYAASNQGSGVPSRFSGSGSGTDFTLTISSLQPDDFATYYCQQSKEVPWTFGQGTKVEIK
